The source of these data is patent US20220074941A1, “HSP90 COMBINATION THERAPY” (Sloan-Kettering Institute for Cancer Research, priority 2011, published 2022).

The chains are these.
B1: PTPLAD1 (protein, UniProt Q9P035 1-362, looked up)
Very-long-chain …: MENQVLTPHVYWAQRHRELYLRVELSDVQNPAISITENVLHFKAQGHGAKGDNVYEFHLEFLDLVKPEPVYKLTQRQVNITVQKKVSQWWERLTKQEKRPLFLAPDFDRWLDESDAEMELRAKEEERLNKLRLESEGSPETLTNLRKGYLFMYNLVQFLGFSWIFVNLTVRFCILGKESFYDTFHTVADMMYFCQMLAVVETINAAIGVTTSPVLPSLIQLLGRNFILFIIFGTMEEMQNKAVVFFVFYLWSAIEIFRYSFYMLTCIDMDWKVLTWLRYTLWIPLYPLGCLAEAVSVIQSIPIFNETGRFSFTLPYPVKIKVRFSFFLQIYLIMIFLGLYINFRHLYKQRRRRYGQKKKKIH
B2: CSDE1 (protein, UniProt O75534 1-798, looked up)
Cold shock domain-containing …: MSFDPNLLHNNGHNGYPNGTSAALRETGVIEKLLTSYGFIQCSERQARLFFHCSQYNGNLQDLKVGDDVEFEVSSDRRTGKPIAVKLVKIKQEILPEERMNGQVVCAVPHNLESKSPAAPGQSPTGSVCYERNGEVFYLTYTPEDVEGNVQLETGDKINFVIDNNKHTGAVSARNIMLLKKKQARCQGVVCAMKEAFGFIERGDVVKEIFFHYSEFKGDLETLQPGDDVEFTIKDRNGKEVATDVRLLPQGTVIFEDISIEHFEGTVTKVIPKVPSKNQNDPLPGRIKVDFVIPKELPFGDKDTKSKVTLLEGDHVRFNISTDRRDKLERATNIEVLSNTFQFTNEAREMGVIAAMRDGFGFIKCVDRDVRMFFHFSEILDGNQLHIADEVEFTVVPDMLSAQRNHAIRIKKLPKGTVSFHSHSDHRFLGTVEKEATFSNPKTTSPNKGKEKEAEDGIIAYDDCGVKLTIAFQAKDVEGSTSPQIGDKVEFSISDKQRPGQQVATCVRLLGRNSNSKRLLGYVATLKDNFGFIETANHDKEIFFHYSEFSGDVDSLELGDMVEYSLSKGKGNKVSAEKVNKTHSVNGITEEADPTIYSGKVIRPLRSVDPTQTEYQGMIEIVEEGDMKGEVYPFGIVGMANKGDCLQKGESVKFQLCVLGQNAQTMAYNITPLRRATVECVKDQFGFINYEVGDSKKLFFHVKEVQDGIELQAGDEVEFSVILNQRTGKCSACNVWRVCEGPKAVAAPRPDRLVNRLKNITLDDASAPRLMVLRQPRGPDNSMGFGAERKIRQAGVID
B3: DIABLO (protein, UniProt Q9NR28 22-239, looked up)
Diablo IAP-binding …: LCVPVVANFKKRCFSELIRPWHKTVTIGFGVTLCAVPIAQKSEPHSLSSEALMRRAVSLVTDSTSTFLSQTTYALIEAITEYTKAVYTLTSLYRQYTSLLGKMNSEEEDEVWQVIIGARAEMTSKHQEYLKLETTWMTAVGLSEMAAEAAYQTGADQASITARNHIQLVKLQVEEVHQLSRKAETKLAEAQIEELRQKTQEEGEERAESEQEAYLRED
B4: ZC3HAV1 (protein, UniProt Q7Z2W4 2-902, looked up)
Zinc finger CCCH-type …: ADPEVCCFITKILCAHGGRMALDALLQEIALSEPQLCEVLQVAGPDRFVVLETGGEAGITRSVVATTRARVCRRKYCQRPCDNLHLCKLNLLGRCNYSQSERNLCKYSHEVLSEENFKVLKNHELSGLNKEELAVLLLQSDPFFMPEICKSYKGEGRQQICNQQPPCSRLHICDHFTRGNCRFPNCLRSHNLMDRKVLAIMREHGLNPDVVQNIQDICNSKHMQKNPPGPRAPSSHRRNMAYRARSKSRDRFFQGSQEFLASASASAERSCTPSPDQISHRASLEDAPVDDLTRKFTYLGSQDRARPPSGSSKATDLGGTSQAGTSQRFLENGSQEDLLHGNPGSTYLASNSTSAPNWKSLTSWTNDQGARRKTVFSPTLPAARSSLGSLQTPEAVTTRKGTGLLSSDYRIINGKSGTQDIQPGPLFNNNADGVATDITSTRSLNYKSTSSGHREISSPRIQDAGPASRDVQATGRIADDADPRVALVNDSLSDVTSTTSSRVDDHDSEEICLDHLCKGCPLNGSCSKVHFHLPYRWQMLIGKTWTDFEHMETIEKGYCNPGIHLCSVGSYTINFRVMSCDSFPIRRLSTPSSVTKPANSVFTTKWIWYWKNESGTWIQYGEEKDKRKNSNVDSSYLESLYQSCPRGVVPFQAGSRNYELSFQGMIQTNIASKTQKDVIRRPTFVPQWYVQQMKRGPDHQPAKTSSVSLTATFRPQEDFCFLSSKKYKLSEIHHLHPEYVRVSEHFKASMKNFKIEKIKKIENSELLDKFTWKKSQMKEEGKLLFYATSRAYVESICSNNFDSFLHETHENKYGKGIYFAKDAIYSHKNCPYDAKNVVMFVAQVLVGKFTEGNITYTSPPPQFDSCVDTRSNPSVFVIFQKDQVYPQYVIEYTEDKACVIS
B5: STRN (protein, UniProt O43815 1-780, looked up)
Striatin: MDEQAGPGVFFSNNHPGAGGAKGLGPLAEAAAAGDGAAAAGAARAQYSLPGILHFLQHEWARFEVERAQWEVERAELQAQIAFLQGERKGQENLKKDLVRRIKMLEYALKQERAKYHKLKYGTELNQGDMKPPSYDSDEGNETEVQPQQNSQLMWKQGRQLLRQYLQEVGYTDTILDVKSKRVRALLGFSSDVTDREDDKNQDSVVNGTEAEVKETAMIAKSELTDSASVLDNFKFLESAAADFSDEDEDDDVDGREKSVIDTSTIVRKKALPDSGEDRDTKEALKEFDFLVTSEEGDNESRSAGDGTDWEKEDQCLMPEAWNVDQGVITKLKEQYKKERKGKKGVKRPNRSKLQDMLANLRDVDELPSLQPSVGSPSRPSSSRLPEHEINRADEVEALTFPPSSGKSFIMGADEALESELGLGELAGLTVANEADSLTYDIANNKDALRKTWNPKFTLRSHFDGIRALAFHPIEPVLITASEDHTLKMWNLQKTAPAKKSTSLDVEPIYTFRAHKGPVLCVVMSSNGEQCYSGGTDGLIQGWNTTNPNIDPYDSYDPSVLRGPLLGHTDAVWGLAYSAAHQRLLSCSADGTLRLWNTTEVAPALSVFNDTKELGIPASVDLVSSDPSHMVASFSKGYTSIFNMETQQRILTLESNVDTTANSSCQINRVISHPTLPISITAHEDRHIKFYDNNTGKLIHSMVAHLEAVTSLAVDPNGLYLMSGSHDCSIRLWNLESKTCIQEFTAHRKKFEESIHDVAFHPSKCYIASAGADALAKVFV
B6: SDPR (protein, UniProt O95810 2-425, looked up)
Caveolae-associated protein 2: GEDAAQAEKFQHPGSDMRQEKPSSPSPMPSSTPSPSLNLGNTEEAIRDNSQVNAVTVLTLLDKLVNMLDAVQENQHKMEQRQISLEGSVKGIQNDLTKLSKYQASTSNTVSKLLEKSRKVSAHTRAVKERMDRQCAQVKRLENNHAQLLRRNHFKVLIFQEENEIPASVFVKQPVSGAVEGKEELPDENKSLEETLHTVDLSSDDDLPHDEEALEDSAEEKVEESRAEKIKRSSLKKVDSLKKAFSRQNIEKKMNKLGTKIVSVERREKIKKSLTSNHQKISSGKSSPFKVSPLTFGRKKVREGESHAENETKSEDLPSSEQMPNDQEEESFAEGHSEASLASALVEGEIAEEAAEKATSRGSNSGMDSNIDLTIVEDEEEESVALEQAQKVRYEGSYALTSEEAERSDGDPVQPAVLQVHQTS
B7: PHB (protein, UniProt P35232 2-272, looked up)
Prohibitin 1: AAKVFESIGKFGLALAVAGGVVNSALYNVDAGHRAVIFDRFRGVQDIVVGEGTHFLIPWVQKPIIFDCRSRPRNVPVITGSKDLQNVNITLRILFRPVASQLPRIFTSIGEDYDERVLPSITTEILKSVVARFDAGELITQRELVSRQVSDDLTERAATFGLILDDVSLTHLTFGKEFTEAVEAKQVAQQEAERARFVVEKAEQQKKAAIISAEGDSKAAELIANSLATAGDGLIELRKLEAAEDIAYQLSRSRNITYLPAGQSVLLQLPQ
B8: PSPC1 (protein, UniProt Q8WXF1 1-523, looked up)
Paraspeckle component 1: MMLRGNLKQVRIEKNPARLRALESAVGESEPAAAAAMALALAGEPAPPAPAPPEDHPDEEMGFTIDIKSFLKPGEKTYTQRCRLFVGNLPTDITEEDFKRLFERYGEPSEVFINRDRGFGFIRLESRTLAEIAKAELDGTILKSRPLRIRFATHGAALTVKNLSPVVSNELLEQAFSQFGPVEKAVVVVDDRGRATGKGFVEFAAKPPARKALERCGDGAFLLTTTPRPVIVEPMEQFDDEDGLPEKLMQKTQQYHKEREQPPRFAQPGTFEFEYASRWKALDEMEKQQREQVDRNIREAKEKLEAEMEAARHEHQLMLMRQDLMRRQEELRRLEELRNQELQKRKQIQLRHEEEHRRREEEMIRHREQEELRRQQEGFKPNYMENREQEMRMGDMGPRGAINMGDAFSPAPAGNQGPPPMMGMNMNNRATIPGPPMGPGPAMGPEGAANMGTPMMPDNGAVHNDRFPQGPPSQMGSPMGSRTGSETPQAPMSGVGPVSGGPGGFGRGSQGGNFEGPNKRRRY
B9: GPS2 (protein, UniProt Q13227 1-327, looked up)
G protein pathway suppressor 2: MPALLERPKLSNAMARALHRHIMMERERKRQEEEEVDKMMEQKMKEEQERRKKKEMEERMSLEETKEQILKLEEKLLALQEEKHQLFLQLKKVLHEEEKRRRKEQSDLTTLTSAAYQQSLTVHTGTHLLSMQGSPGGHNRPGTLMAADRAKQMFGPQVLTTRHYVGSAAAFAGTPEHGQFQGSPGGAYGTAQPPPHYGPTQPAYSPSQQLRAPSAFPAVQYLSQPQPQPYAVHGHFQPTQTGFLQPGGALSLQKQMEHANQQTGFSDSSSLRPMHPQALHPAPGLLASPQLPVQMQPAGKSGFAATSQPGPRLPFIQHSQNPRFYHK

The test system of one test is Hsp90 complexes in K562 cell extract. As to the kind of experiment: Nano-LC-MS/MS of PU-beads pull-downs. The test is classed as binding. Conditions: protein identified in PU-beads pull-down of K562 cell extract, Prep 1; QSTAR-Elite QTof MS. The procedure, abridged: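 Lysates pre-cleared overnight at 4 °C with control beads, then pulled down with PU-beads or control beads; eluted proteins (2% SDS boil) gel-separated and analysed by nano LC-MS/MS on a QTof. Mascot identification (p<0.05), spectral counts and sequence coverage evaluated in Scaffold.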
With B1, the “Number of Assigned Spectra, K562 Prep 1” value was determined as 2.

Regarding B2, the “Number of Assigned Spectra, K562 Prep 1” value is reported as 4.

With B3, the “Number of Assigned Spectra, K562 Prep 1” value amounted to 1.

As for B4, the “Number of Assigned Spectra, K562 Prep 1” value was 7.

Regarding B5, the “Number of Assigned Spectra, K562 Prep 1” value came to 5.

Consider B6, for which the “Number of Assigned Spectra, K562 Prep 1” value is recorded as 0.

On to B7, for which the “Number of Assigned Spectra, K562 Prep 1” value is 5.

For the molecule B8, the “Number of Assigned Spectra, K562 Prep 1” value came out at 5.

Take B9: the “Number of Assigned Spectra, K562 Prep 1” value came out at 5.

Still in this test, the particulars now being: protein identified in PU-beads pull-down of K562 cell extract, Prep 2; QSTAR-Elite QTof MS.
Take B1: the “Number of Assigned Spectra, K562 Prep 2” value is listed as 0.

As to B2, the “Number of Assigned Spectra, K562 Prep 2” value came to 0.

In the case of B3, the “Number of Assigned Spectra, K562 Prep 2” value is on record as 0.

Take B4: the “Number of Assigned Spectra, K562 Prep 2” value stood at 0.

In the case of B5, the “Number of Assigned Spectra, K562 Prep 2” value came to 1.

Consider B6, for which the “Number of Assigned Spectra, K562 Prep 2” value is given as 0.

In the case of B7, the “Number of Assigned Spectra, K562 Prep 2” value stood at 0.

As for B8, the “Number of Assigned Spectra, K562 Prep 2” value was 2.

As to B9, the “Number of Assigned Spectra, K562 Prep 2” value is 0.

Another test relates to Hsp90 complexes in Mia-PaCa-2 cell extract. The test can be described thus: Nano-LC-MS/MS of PU-beads pull-downs. Conditions: protein identified in PU-beads pull-down of Mia-PaCa-2 cell extract; QSTAR-Elite QTof MS. The test is classed as binding, human. The essentials:
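Lysates pre-cleared overnight at 4 °C with control beads underwent PU-bead pull-down; bound proteins were SDS-eluted, gel-separated, digested and analyzed by nano-LC-MS/MS on a QTof. Identifications used significance p<0.05, 0.4 Da tolerances and one missed cleavage; unique peptide (spectral) counts and sequence coverage were reported.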
In the case of B1, the “Number of Assigned Spectra, Mia-Paca 2” value was determined as 0.

With B2, the “Number of Assigned Spectra, Mia-Paca 2” value is recorded as 0.

Take B3: the “Number of Assigned Spectra, Mia-Paca 2” value amounted to 2.

As to B4, the “Number of Assigned Spectra, Mia-Paca 2” value turned out to be 0.

For the molecule B5, the “Number of Assigned Spectra, Mia-Paca 2” value is given as 0.

As for B6, the “Number of Assigned Spectra, Mia-Paca 2” value came out at 4.

For B7, the “Number of Assigned Spectra, Mia-Paca 2” value is given as 0.

As to B8, the “Number of Assigned Spectra, Mia-Paca 2” value was 0.

As to B9, the “Number of Assigned Spectra, Mia-Paca 2” value is reported as 0.
